The record followed here is patent publication EP4790071A2.

The target of assay [1] is FcγRIIIa (from Sino Biological, also known as CD16a) (UniProt P08637). The experiment in a line: BLI (Fortebio), FcγRIIIa on SA sensor, antibody 31.3-500 nM, 30 C, 1:1 fit.
The target of assay [2] is human NT5E-Biotin (for NT5E, GenbankID: NP_002517.1, position: 1-552) (human) (UniProt P21589). The experiment in a line: ELISA, NT5E-Biotin on streptavidin plate; antibody 0.333 ug/mL.
For assay [3], the target named is CD73 endogenously expressed on the cell surface (MDA-MB-231 cells; U87-MG cells) (UniProt P21589). The experiment in a line: flow cytometry on MDA-MB-231 cells; antibody 0.14 nM.
Chain of CD73 endogenously expressed on the cell surface (MDA-MB-231 cells; U87-MG cells) (P21589 27-549 limits assumed): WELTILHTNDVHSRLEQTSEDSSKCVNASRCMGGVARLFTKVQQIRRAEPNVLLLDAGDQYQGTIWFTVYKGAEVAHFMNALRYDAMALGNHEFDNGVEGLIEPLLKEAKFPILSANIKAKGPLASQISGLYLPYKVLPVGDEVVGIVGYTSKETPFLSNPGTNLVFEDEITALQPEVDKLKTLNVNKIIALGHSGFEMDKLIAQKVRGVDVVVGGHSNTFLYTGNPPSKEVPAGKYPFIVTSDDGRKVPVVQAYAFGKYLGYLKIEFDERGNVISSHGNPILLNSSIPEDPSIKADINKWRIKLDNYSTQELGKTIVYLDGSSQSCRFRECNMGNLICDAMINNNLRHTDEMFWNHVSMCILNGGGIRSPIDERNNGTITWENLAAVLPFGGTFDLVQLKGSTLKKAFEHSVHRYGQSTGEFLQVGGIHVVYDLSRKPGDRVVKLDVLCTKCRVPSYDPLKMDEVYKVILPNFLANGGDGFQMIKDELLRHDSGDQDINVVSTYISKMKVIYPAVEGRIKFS
The target in assay [4] is human NT5E-Biotin (for NT5E, GenbankID: NP_002517.1, position: 1-552) (human) (UniProt P21589). As to the kind of experiment: ELISA, NT5E-Biotin on streptavidin plate; antibody 0.333 ug/mL diluted 1:3.
For assay [5], the target named is CD73 endogenously expressed on the cell surface (MDA-MB-231 cells; U87-MG cells) (UniProt P21589). As to the kind of experiment: flow cytometry on MDA-MB-231 cells.
The target of assay [6] is human NT5E-Biotin (for NT5E, GenbankID: NP_002517.1, position: 1-552) (human) (UniProt P21589). As to the kind of experiment: ELISA, NT5E-Biotin on streptavidin plate; antibody 0.333 ug/mL diluted 1:27.
For assay [7] the target is unchanged. As to the kind of experiment: ELISA, NT5E-Biotin on streptavidin plate.
The target is the same in assay [8]. As to the kind of experiment: ELISA, NT5E-Biotin on streptavidin plate; antibody 0.333 ug/mL diluted 1:243.
The target is the same in assay [9]. As to the kind of experiment: ELISA, NT5E-Biotin on streptavidin plate; antibody 0.333 ug/mL diluted 1:729.
The target of assay [10] is human NT5E(1-552)-his (human) (UniProt P21589). The experiment in a line: BLI (Fortebio), antibody on Protein A sensor, antigen 3.125-200 nM, 37 C, 1:1 fit.
Chain of human NT5E(1-552)-his (human) (P21589 27-552 limits assumed, form in doubt): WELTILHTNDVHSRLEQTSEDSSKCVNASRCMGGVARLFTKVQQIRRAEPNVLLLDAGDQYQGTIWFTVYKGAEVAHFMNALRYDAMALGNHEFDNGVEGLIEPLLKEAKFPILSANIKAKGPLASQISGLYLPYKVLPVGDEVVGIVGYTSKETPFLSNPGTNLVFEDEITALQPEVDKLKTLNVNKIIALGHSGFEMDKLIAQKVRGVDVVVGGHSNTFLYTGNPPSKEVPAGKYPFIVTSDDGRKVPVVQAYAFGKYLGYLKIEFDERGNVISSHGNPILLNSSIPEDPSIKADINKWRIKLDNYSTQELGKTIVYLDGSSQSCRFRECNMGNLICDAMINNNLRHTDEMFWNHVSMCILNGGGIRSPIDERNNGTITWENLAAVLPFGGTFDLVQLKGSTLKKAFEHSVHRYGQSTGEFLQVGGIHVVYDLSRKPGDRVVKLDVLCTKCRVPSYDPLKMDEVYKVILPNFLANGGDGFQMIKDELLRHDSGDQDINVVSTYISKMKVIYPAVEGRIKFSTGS
Assay [11] deals with human NT5E-Biotin (for NT5E, GenbankID: NP_002517.1, position: 1-552) (human) (UniProt P21589). As to the kind of experiment: ELISA, NT5E-Biotin on streptavidin plate; antibody 0.333 ug/mL diluted 1:9.
The target in assay [12] is CD73 endogenously expressed on the cell surface (MDA-MB-231 cells; U87-MG cells) (UniProt P21589). As to the kind of experiment: flow cytometry on MDA-MB-231 cells; antibody 0.41 nM.
The target of assay [13] is human NT5E-Biotin (for NT5E, GenbankID: NP_002517.1, position: 1-552) (human) (UniProt P21589). As to the kind of experiment: ELISA, NT5E-Biotin on streptavidin plate; antibody 0.333 ug/mL diluted 1:81.

Several values for one entry are separate records, joined by “and”; a condition that tells them apart may be missing. Equal values may be shown once.

Chain of FcγRIIIa (from Sino Biological, also known as CD16a) (P08637 17-208 limits assumed): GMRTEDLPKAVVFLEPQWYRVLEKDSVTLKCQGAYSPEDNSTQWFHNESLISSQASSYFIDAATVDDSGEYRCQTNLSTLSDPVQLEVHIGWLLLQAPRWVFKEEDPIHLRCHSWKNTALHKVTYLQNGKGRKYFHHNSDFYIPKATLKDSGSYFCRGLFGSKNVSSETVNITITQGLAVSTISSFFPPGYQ
Chain of human NT5E-Biotin (for NT5E, GenbankID: NP_002517.1, position: 1-552) (human) (P21589 27-552 limits assumed, form in doubt): as the sequence (P21589 27-552 limits assumed, form in doubt) above

In [1], Wild-type IgG1 antibody registered a Kd of 125 nM, a koff of 0.022 s⁻¹ and a kon of 176000 M⁻¹ s⁻¹.
As to “positive control antibody MEDI9447 (oleclumab)”, the OD (450 nm) was 2.55 and 2.53 in [2]; 2.57 and 2.6 in assay [4]; 1.77 and 1.74 in [6]; 0.536 and 0.528 in assay [8]; 0.272 and 0.275 in assay [9]; 2.27 and 2.28 in [11]. The OD (450 nm) in assay [13] was 1.06 and 1.03. Further, the FACS fluorescence signal (read-out not given) in [3] worked out at 43.2; in assay [12], 91. For the same substance, the figures for the concentration for a half-maximal effect (EC50) in [5] and in [7] were 1.43 nM and 0.048 nM, respectively. Moreover, the values for the Kd in assay [10] and in assay [1] were 0.104 nM and 141 nM, respectively. The same substance returned a S E (kon) in [10] of 3200 M⁻¹ s⁻¹. The substance further had a S E(kdis) in assay [10] of 5.02e-06 s⁻¹. The values for the koff in assay [10] and in assay [1] were 2.44e-05 s⁻¹ and 0.0342 s⁻¹, respectively. Besides, the figures for the kon in assay [10] and in [1] were 234000 M⁻¹ s⁻¹ and 243000 M⁻¹ s⁻¹, respectively.
